For experiment [1], the target named is cyclic peptide hTM4SF5EC2-C (human). The experiment in a line: SPR; biotinylated peptide immobilized on a streptavidin chip, increasing amounts of antibody applied; SR7500DC Reichert SPR system. (In general: Surface plasmon resonance follows binding to a sensor surface in real time, without labels.)
In experiment [2] the target is T1, Myc-tagged recombinant human TM4SF5 protein (Homo sapiens (Huh-7 cDNA), UniProt O14894).
T1 construct: human transmembrane 4 superfamily member 5 protein (TM4SF5); cDNA amplified from Huh-7 mRNA with the printed primers (5' primer holds the ATG); also called Myc-tagged hTM4SF5; hTM4SF5
The experiment in a line: western blotting; whole cell lysates of HEK 293F-EV and HEK 293F-TM4SF5 cells resolved on SDS-PAGE and probed with the antibody. To be noted: one partner purified. (Immunoblotting shows a protein as a band on a membrane.)

Here are results for 1 molecule from paper PMC5346706, “Anti-metastatic effect of the TM4SF5-specific peptide vaccine and humanized monoclonal antibody on colon cancer in a mouse lung metastasis model” (Oncotarget, 2016).

Broadly, the Kd is the constant that tells how readily two partners part at equilibrium. As a reminder, the koff is the first-order rate constant of dissociation.

T1 sequence (O14894 whole entry): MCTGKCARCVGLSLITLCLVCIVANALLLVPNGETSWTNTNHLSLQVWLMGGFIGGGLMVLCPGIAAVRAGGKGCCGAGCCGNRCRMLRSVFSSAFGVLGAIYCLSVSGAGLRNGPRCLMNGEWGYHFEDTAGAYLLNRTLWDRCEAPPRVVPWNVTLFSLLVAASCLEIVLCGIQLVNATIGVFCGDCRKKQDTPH

B1: mouse anti-TM4SF5 monoclonal antibody mEC2-C (antibody, V domains shown)
VH: QVQLEESGPGLVAPSQSLSIICTVSGFSLTSYGVTWVRQPPGKGLEWLGVIWSDGSTNYQSALISRLTISRDNSKSQAFLKLNSLQTDDTATYYCARPSNYYYFDYWGQGTTLTVSS
VL: DIVMTQSPSSLAVSAGERVTLSCKSSQSLFDRRTRKTYLAWYQQKPGQSPKLLISWASTRESGVPDRFTGSGSGTDFTLTISSVQAEDLAVYYCKQSYNLFTFGGGTKLEIK
notes: VH of mEC2-C (mouse VH2 subtype); mouse IgG3 heavy chain constant region; VL of mEC2-C (mouse Vk8 subtype); mouse kappa light chain constant region (cloned with kappa chain primers); Mouse IgG3, kappa; also called mEC2-2; source: hybridoma, purified from ascitic fluid (Protein A column)
In experiment [1], B1 registered a Kd below 0.48 nM and a koff below 1e-05 s⁻¹. Besides, the binding result in experiment [2] is recorded as “binds”.
